The values that follow come from the RNAGym collection of RNA variant scans (doi:10.7554/elife.80360).

B1: HDV Ribozyme (parent)
chain: GGCCGGCAUGGUCCCAGCCUCCUCGCUGGCGCCGGCUGGGCAACAUUCCGAGGGGACCGUCCCCUCGGUAAUGGCGAAUGGGACCCA

In this series the parent is B1. In words: self-cleavage, relative activity (ratio to wild type); higher = more cleavage; co-transcriptional.
Turning to A71G C86A, the self-cleavage came out at 1.19. In the case of C41A G73U, the self-cleavage was found to be 0.873. Consider C14G C33A, for which the self-cleavage amounted to 0.151.

Take A8G A45G: the self-cleavage came out at 0.9. Regarding G17U U47A, the self-cleavage was found to be 0.256. Regarding G10C G76C, the self-cleavage is 0.861. In the case of U46C G52C it was 0.72; in that of U37A A83G, 0.115; in that of U60G C61A, 1.11. For G17U A51G, the self-cleavage was 0.34. As for U27C C48U, the self-cleavage was 0.604. As to A8C U37A, the self-cleavage is 0.128.

Turning to A43U U79C, the self-cleavage was determined as 0.127. In the case of C26U U79A it was 1.04; in that of G67U U69A, 0.801; in that of C32A, 0.21. Take G5C G35U: the self-cleavage worked out at 0.0308. In the case of G17C G25U it was 0.101; in that of C33U C57U, 0.719; in that of U79C C86A, 0.513. In the case of C62A A71C it was 0.85; in that of C13G G67U, 0.101; in that of C15G A56G, 0.712. Consider C14U A45U, for which the self-cleavage is 0.892. In the case of C48U G54U it was 1.02; in that of C48U G54C, 1.2. The result for C36G G39A reads 0.0326; that for C4G G6C, 0.214; that for A42C C66A, 0.332. In the case of G40A C41U it was 0.87; in that of G2U G59C, 0.0323; in that of G31A U60A, 0.49. As for C14A G82U, the self-cleavage was found to be 0.665. As for C19U U47G, the self-cleavage was found to be 0.0906. For G11A G50A, the self-cleavage was 0.366.

Turning to A51U C58G, the self-cleavage was 0.997. The result for C4A G11C reads 0.0604; that for C4G C36U, 0.0504. For G38A G39U, the self-cleavage was found to be 0.0665.

Take G10A C63A: the self-cleavage was 0.76. G38C U72C: the self-cleavage was found to be 0.341. In the case of G17A G59A it was 0.635.

For G17A G59C, the self-cleavage is 0.66.

G31C A87U: the self-cleavage was 0.328. Regarding A43U C63A, the self-cleavage was 0.716. The result for G5U G11U reads 0.156. Regarding C3A U27A, the self-cleavage came out at 0.306. In the case of C30A G73U it was 0.111; in that of G17A A78G, 0.262. Consider C26A U37G, for which the self-cleavage came to 0.19. In the case of C66U G74U it was 0.475.

Take G17A U60A: the self-cleavage was 0.787.

As to C14A C15U, the self-cleavage was 0.192. Take C7G C13G: the self-cleavage came out at 0.0554. Take C57A C62G: the self-cleavage is 0.85. In the case of G11A G67A, the self-cleavage is 0.0841.

For the variant G31C G76A, the self-cleavage amounted to 0.453. The result for U72C G76C reads 0.779; that for U72C G76A, 0.962; that for G31U C66U, 0.437. For the variant C32A A70U, the self-cleavage worked out at 0.0852. Turning to C21U A83C, the self-cleavage was 0.108. In the case of C4A G67A it was 0.149; in that of A42C G73C, 0.119; in that of G6U G73C, 0.266. The result for C18G G54C reads 0.0475; that for C15A G28A, 0.136. In the case of U9A G67C it was 0.831. Consider U27A C57A, for which the self-cleavage amounted to 0.855. Consider G5C C13G, for which the self-cleavage is 0.262.

With A42C U47G, the self-cleavage is 0.0594. In the case of C3U U69C it was 0.616; in that of G55U U79G, 0.591; in that of G31C U46A, 0.256. Regarding A8C U60G, the self-cleavage was 0.554. The result for C22U G55U reads 0.732; that for C21U C41U, 0.267; that for G54A G76C, 1.04. In the case of U23C C41G it was 0.201; in that of C4G C57U, 0.529; in that of C18U G81A, 0.265.

With G6U G52A, the self-cleavage stood at 0.739. As for G2A C48G, the self-cleavage is 0.157. In the case of C4G G53C it was 0.213; in that of G38C G55U, 0.193; in that of U9A, 1.04. In the case of C32G A42G it was 0.0426; in that of C32G A42U, 0.0594; in that of C61U U72G, 0.567.

For A77C G82A, the self-cleavage stood at 0.358. As for G1C A83C, the self-cleavage stood at 0.185. The result for A16U G28A reads 0.0475; that for C24G C63U, 0.0875; that for G28A C86G, 0.0678. As to A45C C48A, the self-cleavage worked out at 0.779.

Regarding C19U C66A, the self-cleavage stood at 0.182.

As to C85A C86A, the self-cleavage was 0.924. In the case of C4U G38U it was 0.13; in that of G11U C64G, 0.465; in that of G40U A42U, 0.496.

Consider G11A G74C, for which the self-cleavage is 0.0723. The result for C32G G73A reads 0.0615.

For U20G G54U, the self-cleavage came to 0.125.

Take G6U G17C: the self-cleavage came out at 0.0554. The result for C22A U23A reads 0.224; that for A42C A45C, 0.0462. With C24U C85A, the self-cleavage was found to be 0.831.

For C48U A78G, the self-cleavage was found to be 0.522. The result for C62A C64G reads 0.142; that for G28U C64U, 0.0733. As for G10C A77G, the self-cleavage came out at 0.458.

Regarding U72C U79G, the self-cleavage was found to be 0.133. The result for G40C A45G reads 0.32. The result for C15G A78C reads 0.

Take U20G G59C: the self-cleavage was 0.361. In the case of C3U C64A it was 0.518; in that of G38A A70C, 0.177; in that of C30U U47C, 0.401.

With C3A G68A, the self-cleavage stood at 0.408. As for A16C U47A, the self-cleavage was determined as 0.688. G74C A78U: the self-cleavage was 0.332. With G2C U12C, the self-cleavage is 0.175. In the case of C3G C41U it was 0.547; in that of C22A A71C, 0.0405; in that of G2A G82A, 0.0852.

Consider C30U G74U, for which the self-cleavage amounted to 0.131. In the case of G17C C21A, the self-cleavage came to 0.0519.

Take G52U U65G: the self-cleavage was 0.767. As for G1C C33A, the self-cleavage stood at 0.222. For G38C C85U, the self-cleavage stood at 0.185. With G53C C64U, the self-cleavage is 0.703. Turning to C7G C36G, the self-cleavage turned out to be 0.0723.

For the variant G28C C30G, the self-cleavage worked out at 0.101. C33G U46A: the self-cleavage was 0. The result for C19U C21U reads 0.0378. For the variant A16G C32U, the self-cleavage turned out to be 0.811.

Turning to C22U U72G, the self-cleavage was 0.17.

As to U12G, the self-cleavage was 0.922.

Consider G17U C33G, for which the self-cleavage amounted to 0.0831. The result for G1C C36G reads 0.0437. As to G29C G81U, the self-cleavage stood at 0.

In the case of G34A G50C, the self-cleavage worked out at 0.267. The result for C44A G76A reads 0.873. For G25A G28C, the self-cleavage amounted to 0.231. The result for G5C G80C reads 0.17; that for G52A G76U, 0.983. In the case of G10A G55C it was 0.734. The result for G55C U65A reads 0.88; that for C18A C86A, 0.106; that for C49G G82U, 0.123. For the variant G31A C75A, the self-cleavage came to 0.136. With U72A C86G, the self-cleavage was 0.674.

With G34C G50C, the self-cleavage stood at 0.288. The result for C26G C57U reads 1.02; that for U20C C41G, 0.172; that for A71U A78C, 0.188. Take A8U C64U: the self-cleavage was 1.11.

Take U12A G38C: the self-cleavage is 0.0489.

Turning to G34A U46G, the self-cleavage worked out at 0.0332. The result for C30U G67A reads 0.578; that for C14A G29C, 0.0302. As to G74A G76U, the self-cleavage is 0.727. Turning to G1U G82U, the self-cleavage turned out to be 0.389. The result for U46A G81C reads 0.312; that for A43U U60A, 0.594; that for G28C G29A, 0.0692. The result for G6C U79A reads 0.119.
